Like-named read-outs stand apart in the source and are kept apart here.
B1: c67A2E1D10 (antibody, V domains shown)
VH: EVQLQQSGAELVKPGASVKLSCTASGFNIKNYYMHWVKQRTEEGLEWIGRIDPEDGETKYAPKFQAKATITADTSSNTAYLQLSSLTSEDTAVYFCARKGYYGNYGAWFAYWGQGTLVTVSA
VL: DIQMTQSPASLSVSVGETVTITCRASEDLYSNLAWYQQKQGKSPQLLVYAATFLADGVPSRFSGSGSGTQYSLKINSLQSEDFGNYYCQHFWGTPPTFGGGTKLEIK
B2: h97A3C2H4-9 (antibody, human IgG1, V domains shown)
VH: EVQLVESGGGLVQPGGSLRLSCAASGFTFSTYTMSWVRQAPGKRLEWVAYISYGGGSTSYPDTVKGRFTISRDNAKNSLYLQMNSLRAEDTAVYYCTRHVTVVENSMDYWGQGTTVTVSS
VL: DILLTQSPDFQSVTPKEKVTITCRASQSIGTSIHWYQQKTDQSPKLLIKYVSESFSGTPSRFSGSGSGTDFTLTINSLEAEDAATYYCQQTHSWPWTFGGGTKVEIK
notes: Humanized (VH.1b / Vk.1d); also called humanized BLyS antibody
B3: c8E7D9C7F5 (antibody, human IgG1, V domains shown)
VH: QVQLQQSGVELARPGASVKLSCKASGYTFTSYGISWVKQRTGQALEWIGEIYPRSGNTYYNEKFKGKATLTADKSSSTAYMELRSLTSEDSAVYFCARSGPITTLVATDYGMDYWGQGTSVTVSS
VL: DIVLTQSPASLAVSLGQRATISCRASKSVSTSSYSYMHWYQQKPGQPPKLLIKFASNLESGVPARFSGSGSGTDFTLNIHPVEEEDAATYYCQHSREFPYTFGGGTKLEIK
notes: also called BLyS chimeric antibody
B4: c111D10D6G3 (antibody, V domains shown)
VH: QVQLQQPGAELVKPGASVKMSCKASGYTFTRHWITWVKQRPGQGLEWIGDIFPGSGSINYNEKFKSEATLTVEKSSSTAYMQLSSLTSEDSAVYYCARGDVDVWGTGTTVTVSS
VL: DIQMTQSPSSLSASLGERVSLTCRASQEIRGYLSWLQQKPNGTIKRLIYAASTLDSGVPKRFSATRSGSDFSLTISSLESEDFADYYCLQYASYPFTFGSGTKLEIK
B5: h8E7D9C7F5-1 (antibody, human IgG1, V domains shown)
VH: EVQLVQSGAEVKKPGASVKVSCKASGYTFTSYGISWVRQAPGQGLEWMGEIYPRSGNTYYNEKFKGRVTMTTDTSTSTAYMELRSLRSDDTAVYYCARSGPITTLVATDYGMDYWGQGTTVTVSS
VL: DIVMTQSPDSLAVSLGERATINCRASKSVSTSSYSYMHWYQQKPGQPPKLLIKFASNLESGVPDRFSGSGSGTDFTLTISSLQAEDVAVYYCQHSREFPYTFGGGTKVEIK
notes: Humanized (VH.1 / Vk.1); also called humanized BLyS antibody

Columns and labels:
[1] = biological target: T1, biotinylated hBLyS-ECD (human, UniProt Q9Y275 134-285, biotinylated with Biotin-X-X-NHS (molar ratio 7:1); sites not stated); test: ELISA on captured biotinylated hBLyS-ECD; antibody 0.0213 nM
T1 construct: also called biotinylated immunogen; biotinylated hBLvS-ECD
T1 sequence (Q9Y275 134-285): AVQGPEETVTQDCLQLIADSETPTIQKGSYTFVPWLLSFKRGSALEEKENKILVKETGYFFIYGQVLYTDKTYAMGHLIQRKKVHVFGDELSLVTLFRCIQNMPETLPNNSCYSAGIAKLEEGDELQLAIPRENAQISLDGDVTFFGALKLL

[2] = biological target: T1, biotinylated hBLyS-ECD; test: ELISA on captured biotinylated hBLyS-ECD; antibody 0.00427 nM
[3] = biological target: T1, biotinylated hBLyS-ECD; test: ELISA on captured biotinylated hBLyS-ECD; antibody 13.3 nM
[4] = biological target: T1, biotinylated hBLyS-ECD; test: ELISA on captured biotinylated hBLyS-ECD; antibody 0.107 nM
[5] = biological target: T2, extracellular domain of human BLyS protein (hBLyS-ECD), His-tagged, Ala134-Leu285 (human, UniProt Q9Y275 134-285); test: cell-based or functional assay
T2 sequence (Q9Y275 134-285): as above

[6] = biological target: T1, biotinylated hBLyS-ECD; test: ELISA on captured biotinylated hBLyS-ECD; antibody 0.534 nM
[7] = biological target: T1, biotinylated hBLyS-ECD; test: ELISA on captured biotinylated hBLyS-ECD; antibody 66.7 nM
[8] = biological target: T2, extracellular domain of human BLyS …; test: SPR (Biacore), antibody captured by anti-human Fc, hBLyS-ECD as analyte
[9] = biological target: T1, biotinylated hBLyS-ECD; test: ELISA on captured biotinylated hBLyS-ECD; antibody 2.67 nM
[10] = biological target: T1, biotinylated hBLyS-ECD; test: ELISA on captured biotinylated hBLyS-ECD; antibody 0 nM (background)
[11] = biological target: T3, biotinylated hBLyS-ECD (human, UniProt Q9Y275 134-285, biotinylated with Biotin-X-X-NHS (molar ratio 7:1), sites not stated); test: ELISA: biotinylated hBLyS-ECD captured on streptavidin, antibody titrated, HRP secondary antibody
T3 construct: The hBLyS-ECD of Embodiment 1 after biotinylation (Embodiment 2); also called biotinylated immunogen; BLyS protein; not shown: His tag of the pCPC vector
T3 sequence (Q9Y275 134-285): as above

[12] = biological target: T3, biotinylated hBLyS-ECD; test: as above; remark: listed apart in the source
[13] = biological target: T2, extracellular domain of human BLyS …; test: cell-based or functional assay; remark: listed apart in the source

Binder	OD450 nm [1]	OD450 nm [2]	OD450 nm [3]	OD450 nm [4]	OD450 nm [6]	OD450 nm [7]	Kd [8]	koff [8]	kon [8]	OD450 nm [9]	OD450 nm [10]	EC50 (read off the curve) [11]	also measured
B1	0.523 OD450 nm	0.143 OD450 nm	3.24 OD450 nm	1.58 OD450 nm	2.73 OD450 nm	3.19 OD450 nm	4990 pM	0.000159 s⁻¹	32000 M⁻¹ s⁻¹	2.94 OD450 nm	0.0848 OD450 nm		OD450 nm (as headed), mouse B lymphocyte proliferation; antibody 0 nM [5]: 4060; OD450 nm (as headed), mouse B lymphocyte proliferation; antibody 0.000256 nM [5]: 4720; OD450 nm (as headed), mouse B lymphocyte proliferation; antibody 0.00128 nM [5]: 4810; OD450 nm (as headed), mouse B lymphocyte proliferation; antibody 0.0064 nM [5]: 5170; OD450 nm (as headed), mouse B lymphocyte proliferation; antibody 0.032 nM [5]: 4340; OD450 nm (as headed), mouse B lymphocyte proliferation; antibody 0.16 nM [5]: 3900; OD450 nm (as headed), mouse B lymphocyte proliferation; antibody 0.8 nM [5]: 3970; OD450 nm (as headed), mouse B lymphocyte proliferation; antibody 4 nM [5]: 3500; OD450 nm (as headed), mouse B lymphocyte proliferation; antibody 20 nM [5]: 2610; OD450 nm (as headed), mouse B lymphocyte proliferation; antibody 100 nM [5]: 1100
B2												100 to 200 pM	
B3												~100 pM	EC50 (read off the curve) [12]: ~100 pM
B4	0.747 OD450 nm	0.222 OD450 nm	3.39 OD450 nm	2.12 OD450 nm	3.16 OD450 nm	3.43 OD450 nm	297 pM	2.98e-05 s⁻¹	100000 M⁻¹ s⁻¹	3.4 OD450 nm	0.105 OD450 nm		Proportion of B lymphocytes in splenocytes (%), in vivo in mice [13]: 33.2%
B5												~80 pM	

From patent publication US20210347873A1 (SHANGHAI PHARMAEXPLORER, published 2021)
